B1: SEQ ID NO 7: Segniliparus rotundus carboxylate reductase, N-terminal HIS tagged (protein, listed as Segniliparus rotundus)
chain: MTQSHTQGPQASAAHSRLARRAAELLATDPQAAATLPDPEVVRQATRPGLRLAERVDAILSGYADRPALGQRSFQTVKDPITGRSSVELLPTFDTITYRELRERATAIASDLAHHPQAPAKPGDFLASIGFISVDYVAIDIAGVFAGLTAVPLQTGATLATLTAITAETAPTLFAASIEHLPTAVDAVLATPSVRRLLVFDYRAGSDEDREAVEAAKRKIADAGSSVLVDVLDEVIARGKSAPKAPLPPATDAGDDSLSLLIYTSGSTGTPKGAMYPERNVAHFWGGVWAAAFDEDAAPPVPAINITFLPLSHVASRLSLMPTLARGGLMHFVAKSDLSTLFEDLKLARPTNLFLVPRVVEMLYQHYQSELDRRGVQDGTREAEAVKDDLRTGLLGGRILTAGFGSAPLSAELAGFIESLLQIHLVDGYGSTEAGPVWRDGYLVKPPVTDYKLIDVPELGYFSTDSPHPRGELAIKTQTILPGYYKRPETTAEVFDEDGFYLTGDVVAQIGPEQFAYVDRRKNVLKLSQGEFVTLAKLEAAYSSSPLVRQLFVYGSSERSYLLAVIVPTPDALKKFGVGEAAKAALGESLQKIARDEGLQSYEVPRDFIIETDPFTVENGLLSDARKSLRPKLKEHYGERLEAMYKELADGQANELRDIRRGVQQRPTLETVRRAAAAMLGASAAEIKPDAHFTDLGGDSLSALTFSNFLHDLFEVDVPVGVIVSAANTLGSVAEHIDAQLAGGRARPTFATVHGKGSTTIKASDLTLDKFIDEQTLEAAKHLPKPADPPRTVLLTGANGWLGRFLALEWLERLAPAGGKLITIVRGKDAAQAKARLDAAYESGDPKLAGHYQDLAATTLEVLAGDFSEPRLGLDEATWNRLADEVDFISHPGALVNHVLPYNQLFGPNVAGVAEIIKLAITTRIKPVTYLSTVAVAAGVEPSALDEDGDIRTVSAERSVDEGYANGYGNSKWGGEVLLREAHDRTGLPVRVFRSDMILAHQKYTGQVNATDQFTRLVQSLLATGLAPKSFYELDAQGNRQRAHYDGIPVDFTAESITTLGGDGLEGYRSYNVFNPHRDGVGLDEFVDWLIEAGHPITRIDDYDQWLSRFETSLRGLPESKRQASVLPLLHAFARPGPAVDGSPFRNTVFRTDVQKAKIGAEHDIPHLGKALVLKYADDIKQLGLL
modifications: N-terminal His tag
notes: Segniliparus rotundus carboxylate reductase, N-terminal HIS tagged
B2: SEQ ID NO 10: Pseudomonas syringae ω-transaminase, N-terminal HIS tagged (protein, listed as Pseudomonas syringae)
chain: MSANNPQTLEWQALSSEHHLAPFSDYKQLKEKGPRIITRAEGVYLWDSEGNKILDGMSGLWCVAIGYGREELADAASKQMRELPYYNLFFQTAHPPVLELAKAISDIAPEGMNHVFFTGSGSEGNDTMLRMVRHYWALKGQPNKKTIISRVNGYHGSTVAGASLGGMTYMHEQGDLPIPGVVHIPQPYWFGEGGDMTPDEFGIWAAEQLEKKILELGVENVGAFIAEPIQGAGGVIVPPDSYWPKIKEILSRYDILFAADEVICGFGRTSEWFGSDFYGLRPDMMTIAKGLTSGYVPMGGLIVRDEIVAVLNEGGDFNHGFTYSGHPVAAAVALENIRILREEKIVERVRSETAPYLQKRLRELSDHPLVGEVRGVGLLGAIELVKDKTTRERYTDKGAGMICRTFCFDNGLIMRAVGDTMIIAPPLVISFAQIDELVEKARTCLDLTLAVLQG
modifications: N-terminal His tag
notes: Pseudomonas syringae ω-transaminase, N-terminal HIS tagged
B3: SEQ ID NO 9: Pseudomonas aeruginosa ω-transaminase, N-terminal HIS tagged (protein, listed as Pseudomonas aeruginosa)
chain: MNARLHATSPLGDADLVRADQAHYMHGYHVFDDHRVNGSLNIAAGDGAYIYDTAGNRYLDAVGGMWCTNIGLGREEMARTVAEQTRLLAYSNPFCDMANPRAIELCRKLAELAPGDLDHVFLTTGGSTAVDTAIRLMHYYQNCRGKRAKKHVITRINAYHGSTFLGMSLGGKSADRPAEFDFLDERIHHLACPYYYRAPEGLGEAEFLDGLVDEFERKILELGADRVGAFISEPVFGSGGVIVPPAGYHRRMWELCQRYDVLYISDEVVTSFGRLGHFFASQAVFGVQPDIILTAKGLTSGYQPLGACIFSRRIWEVIAEPDKGRCFSHGFTYSGHPVACAAALKNIEIIEREGLLAHADEVGRYFEERLQSLRDLPIVGDVRGMRFMACVEFVADKASKALFPESLNIGEWVHLRAQKRGLLVRPIVHLNVMSPPLILTREQVDTVVRVLRESIEETVEDLVRAGHR
modifications: N-terminal His tag
notes: Pseudomonas aeruginosa ω-transaminase, N-terminal HIS tagged
B4: SEQ ID NO 8: Chromobacterium violaceum ω-transaminase, N-terminal HIS tagged (protein, listed as Chromobacterium violaceum)
chain: MQKQRTTSQWRELDAAHHLHPFTDTASLNQAGARVMTRGEGVYLWDSEGNKIIDGMAGLWCVNVGYGRKDFAEAARRQMEELPFYNTFFKTTHPAVVELSSLLAEVTPAGFDRVFYTNSGSESVDTMIRMVRRYWDVQGKPEKKTLIGRWNGYHGSTIGGASLGGMKYMHEQGDLPIPGMAHIEQPWWYKHGKDMTPDEFGVVAARWLEEKILEIGADKVAAFVGEPIQGAGGVIVPPATYWPEIERICRKYDVLLVADEVICGFGRTGEWFGHQHFGFQPDLFTAAKGLSSGYLPIGAVFVGKRVAEGLIAGGDFNHGFTYSGHPVCAAVAHANVAALRDEGIVQRVKDDIGPYMQKRWRETFSRFEHVDDVRGVGMVQAFTLVKNKAKRELFPDFGEIGTLCRDIFFRNNLIMRACGDHIVSAPPLVMTRAEVDEMLAVAERCLEEFEQTLKARGLA
modifications: N-terminal His tag
notes: Chromobacterium violaceum ω-transaminase, N-terminal HIS tagged
B5: SEQ ID NO 13: Vibrio fluvialis ω-transaminase, N-terminal HIS tagged (protein, listed as Vibrio fluvialis)
chain: MNKPQSWEARAETYSLYGFTDMPSLHQRGTVVVTHGEGPYIVDVNGRRYLDANSGLWNMVAGFDHKGLIDAAKAQYERFPGYHAFFGRMSDQTVMLSEKLVEVSPFDSGRVFYTNSGSEANDTMVKMLWFLHAAEGKPQKRKILTRWNAYHGVTAVSASMTGKPYNSVFGLPLPGFVHLTCPHYWRYGEEGETEEQFVARLARELEETIQREGADTIAGFFAEPVMGAGGVIPPAKGYFQAILPILRKYDIPVISDEVICGFGRTGNTWGCVTYDFTPDAIISSKNLTAGFFPMGAVILGPELSKRLETAIEAIEEFPHGFTASGHPVGCAIALKAIDVVMNEGLAENVRRLAPRFEERLKHIAERPNIGEYRGIGFMWALEAVKDKASKTPFDGNLSVSERIANTCTDLGLICRPLGQSVVLCPPFILTEAQMDEMFDKLEKALDKVFAEVA
modifications: N-terminal His tag
notes: Vibrio fluvialis ω-transaminase, N-terminal HIS tagged

Key:
Format in all cases: biochemical
[1] = ω-transaminase enzyme activity assay, reverse direction (6-aminohexanoate to adipate semialdehyde); conditions: cell free extract, 10 mM 6-aminohexanoate, 10 mM pyruvate, pH 7.5, 25° C., 24 h, RP-HPLC, against the empty vector control
Description: (§1) A nucleotide sequence encoding a His-tag was added to the genes from Chromobacterium violaceum, Pseudomonas aeruginosa, Pseudomonas syringae, Rhodobacter sphaeroides, and Vibrio Fluvialis encoding the ω-transaminases of SEQ ID NOs: 8, 9, 10, 11 and 13, respectively (see FIG. 20E and FIG. 20F) such that N-terminal HIS tagged ω-transaminases could be produced. Each of the resulting modified genes was cloned into a pET21a expression vector under control of the T7 promoter and each expression vector was transformed into a BL21[DE3] E. coli host. The resulting recombinant E. coli strains were cultivated at 37° C. in a 250 mL shake flask culture containing 50 mL LB media and antibiotic selection pressure, with shaking at 230 rpm. Each culture was induced overnight at 16° C. using 1 mM IPTG.
(§2) The pellet from each induced shake flask culture was harvested via centrifugation. Each pellet was resuspended and lysed via sonication. The cell debris was separated from the supernatant via centrifugation and the cell free extract was used immediately in enzyme activity assays.
Enzyme activity assays in the reverse direction (i.e., 6-aminohexanoate to adipate semialdehyde) were performed in a buffer composed of a final concentration of 50 mM HEPES buffer (pH=7.5), 10 mM 6-aminohexanoate, 10 mM pyruvate and 100 μM pyridoxyl 5′ phosphate. Each enzyme activity assay reaction was initiated by adding cell free extract of the ω-transaminase gene product or the empty vector control to the assay buffer containing the 6-aminohexanoate and incubated at 25° C. for 24 h, with shaking at 250 rpm. The formation of L-alanine from pyruvate was quantified via RP-HPLC.

[2] = ω-transaminase enzyme activity assay, forward direction (adipate semialdehyde to 6-aminohexanoate); conditions: cell free extract, 10 mM adipate semialdehyde, 10 mM L-alanine, pH 7.5, 25° C., 4 h, RP-HPLC, against the empty vector control
Description: as §1, §2
Enzyme activity in the forward direction (i.e., adipate semialdehyde to 6-aminohexanoate) was confirmed for the transaminases of SEQ ID NO 8, SEQ ID NO 9, SEQ ID NO 10, SEQ ID NO 11 and SEQ ID NO 13. Enzyme activity assays were performed in a buffer composed of a final concentration of 50 mM HEPES buffer (pH=7.5), 10 mM adipate semialdehyde, 10 mM L-alanine and 100 μM pyridoxyl 5′ phosphate. Each enzyme activity assay reaction was initiated by adding a cell free extract of the ω-transaminase gene product or the empty vector control to the assay buffer containing the adipate semialdehyde and incubated at 25° C. for 4 h, with shaking at 250 rpm. The formation of pyruvate was quantified via RP-HPLC.

[3] = carboxylate reductase enzyme activity assay (adipate semialdehyde to hexanedial); conditions: purified enzyme enhanced by the gene product of sfp, 2 mM adipate semialdehyde, pH 7.5, room temperature, 20 min, against the empty vector control
Description: The N-terminal His-tagged carboxylate reductase of SEQ ID NO 7 (see Example 2 and FIG. 20E) was assayed using adipate semialdehyde as substrate. The enzyme activity assay was performed in triplicate in a buffer composed of a final concentration of 50 mM HEPES buffer (pH=7.5), 2 mM adipate semialdehyde, 10 mM MgCl2, 1 mM ATP and 1 mM NADPH. The enzyme activity assay reaction was initiated by adding purified carboxylate reductase and phosphopantetheine transferase or the empty vector control to the assay buffer containing the adipate semialdehyde and then incubated at room temperature for 20 min. The consumption of NADPH was monitored by absorbance at 340 nm.

Row | Molecule | ω-transaminase activity: acceptance of 6-aminohexanoate as substrate (formation of L-alanine from pyruvate) [1] | ω-transaminase activity: acceptance of adipate semialdehyde as substrate (formation of pyruvate from L-alanine) [2] | carboxylate reductase activity: acceptance of adipate semialdehyde as substrate (consumption of NADPH, absorbance at 340 nm) [3]
1 | SEQ ID NO 11: Rhodobacter sphaeroides ω-transaminase, N-terminal HIS tagged | accepted 6-aminohexanote as substrate | accepted adipate semialdehyde as substrate | –
2 | B1 | – | – | accepted adipate semialdehyde as substrate
3 | B2 | accepted 6-aminohexanote as substrate | accepted adipate semialdehyde as substrate | –
4 | B3 | – | accepted adipate semialdehyde as substrate | –
5 | B4 | accepted 6-aminohexanote as substrate | accepted adipate semialdehyde as substrate | –
6 | B5 | accepted 6-aminohexanote as substrate | accepted adipate semialdehyde as substrate | –
